Earlier results as cited in publication PMC2574613.
pKd: −log10 of the molar value.

Molecular target: glycoprotein Ibα (Homo sapiens) (UniProt P07359)
Sequence (P07359 17-652): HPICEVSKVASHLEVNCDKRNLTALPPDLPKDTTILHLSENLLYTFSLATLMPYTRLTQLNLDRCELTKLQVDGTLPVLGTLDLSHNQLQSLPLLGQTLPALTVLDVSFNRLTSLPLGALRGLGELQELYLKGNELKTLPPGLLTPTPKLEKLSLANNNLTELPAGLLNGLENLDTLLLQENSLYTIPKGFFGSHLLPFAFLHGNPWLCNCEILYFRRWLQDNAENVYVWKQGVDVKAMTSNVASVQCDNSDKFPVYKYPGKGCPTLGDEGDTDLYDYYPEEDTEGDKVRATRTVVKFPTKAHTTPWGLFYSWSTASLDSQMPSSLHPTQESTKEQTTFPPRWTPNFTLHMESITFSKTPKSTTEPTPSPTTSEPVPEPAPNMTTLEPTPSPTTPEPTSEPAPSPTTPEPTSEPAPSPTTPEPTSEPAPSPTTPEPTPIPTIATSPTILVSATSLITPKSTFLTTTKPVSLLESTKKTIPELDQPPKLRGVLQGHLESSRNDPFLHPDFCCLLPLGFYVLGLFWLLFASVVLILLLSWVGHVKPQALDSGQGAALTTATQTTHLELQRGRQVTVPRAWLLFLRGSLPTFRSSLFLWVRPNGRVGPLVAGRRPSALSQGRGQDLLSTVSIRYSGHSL

Chain of GspB N-terminal basic region (Q939N5 237-603): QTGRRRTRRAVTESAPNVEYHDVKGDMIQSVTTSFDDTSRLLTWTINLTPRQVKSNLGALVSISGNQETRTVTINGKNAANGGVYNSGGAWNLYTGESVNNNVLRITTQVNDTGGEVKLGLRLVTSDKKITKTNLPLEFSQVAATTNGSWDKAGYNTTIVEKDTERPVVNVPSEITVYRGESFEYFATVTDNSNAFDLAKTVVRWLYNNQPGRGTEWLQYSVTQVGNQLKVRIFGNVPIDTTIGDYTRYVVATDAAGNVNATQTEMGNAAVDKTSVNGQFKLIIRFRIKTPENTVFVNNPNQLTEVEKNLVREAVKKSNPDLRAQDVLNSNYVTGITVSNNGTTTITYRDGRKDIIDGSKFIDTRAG

In the case of “GspB N-terminal basic region (from UniProt Q939N5)”, the pKd is given as 7.62.
